{"source": "patent US7045576B2", "about": "“Adjuvants and copolymer compositions” (Cytrx Corporation, priority 1994, dated 2006)", "molecules": {"B1": {"name": "OVA: ovalbumin, prototype vaccine immunogen given without adjuvant (protein, UniProt P01012 2-386, looked up)", "Ovalbumin": "GSIGAASMEFCFDVFKELKVHHANENIFYCPIAIMSALAMVYLGAKDSTRTQINKVVRFDKLPGFGDSIEAQCGTSVNVHSSLRDILNQITKPNDVYSFSLASRLYAEERYPILPEYLQCVKELYRGGLEPINFQTAADQARELINSWVESQTNGIIRNVLQPSSVDSQTAMVLVNAIVFKGLWEKAFKDEDTQAMPFRVTEQESKPVQMMYQIGLFRVASMASEKMKILELPFASGTMSMLVLLPDEVSGLEQLESIINFEKLTEWTSSNVMEERKIKVYLPRMKMEEKYNLTSVLMAMGITDVFSSSANLSGISSAESLKISQAVHAAHAEINEAGREVVGSAEAGVDAASVSEEFRADHPFLFCIKHIATNAVLFFGRCVSP"}}, "key": {"[1]": {"tested_on": "splenic mononuclear cells", "type": "cell-based, C57BL/6 mice", "settings": "immunization with OVA alone"}, "[2]": {"tested_on": "ovalbumin (OVA)", "sequence (P01012 whole entry)": "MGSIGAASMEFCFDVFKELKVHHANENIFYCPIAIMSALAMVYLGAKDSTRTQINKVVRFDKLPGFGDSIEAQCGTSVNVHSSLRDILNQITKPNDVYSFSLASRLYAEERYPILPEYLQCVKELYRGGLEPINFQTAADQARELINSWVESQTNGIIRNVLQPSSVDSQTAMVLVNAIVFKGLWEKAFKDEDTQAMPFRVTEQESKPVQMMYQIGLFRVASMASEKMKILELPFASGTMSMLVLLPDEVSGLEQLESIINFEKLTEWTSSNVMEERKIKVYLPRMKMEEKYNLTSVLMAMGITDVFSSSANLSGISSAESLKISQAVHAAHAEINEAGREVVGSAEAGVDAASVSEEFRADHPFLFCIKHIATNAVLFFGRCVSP", "type": "in vivo, C57BL/6 mice", "settings": "two immunizations with 15 μg of OVA in saline, no adjuvant, 4 weeks", "method": "The immune responses induced by experimental subunit vaccine formulations based on a prototype immunogen combined with different adjuvants including CRL1005 were evaluated. Ovalbumin (OVA) was selected as to vaccine immunogen since dose levels of OVA for obtaining optimal and suboptimal immune responses had been established previously. […] OVA was administered at a dose of 15 ug/dose in a total volume of 100 ul. This dose of OVA had been established as non-immunogenic unless combined with an adjuvant.\nNinety mice (C57BL/6) were divided into 9 test and control groups of 10 mice per group. The mice were immunized twice with 28 days between immunizations. Vaccines were administered by needle injection subcutaneously (s.c.) in a total volume of 100 μ/dose.\nTo evaluate antibody responses, 4 weeks after the second immunization blood was collected via the retro-orbital sinus from 6 mice/group and sera was recovered for serological assay."}, "[3]": {"tested_on": "EG-7.OVA cells", "experiment": "OVA-specific cytotoxic T-lymphocyte (CTL) 51Cr-release assay", "type": "cell-based, C57BL/6 mice", "settings": "after culture of spleen cells with irradiated EG-7.OVA; two immunizations", "source_text": "FIG. 12 presents OVA-specific cytotoxic T-lymphocyte (CTL) responses induced in C57BL/6 mice following two immunizations (days 0 and 28) with OVA in saline (left) or formulated in aqueous solution with CRL1005 copolymer adjuvant (right). A standard ^51 chromium (CR)-release CTL assay was used with OVA-transfected EG-7.OVA cells and control EL-4 cells as the targets. Spleen cells were used as the source of precursor CTL, which were induced to mature to functional CTL effector cells, by culture for 6 days with irradiated EG-7.OVA or EL-4 cells. All testing was done in triplicate using a titration of Effector: Target cells, shown as ratios. Data are shown as the Percent Specific Release (Test Release−Spontaneous Release/Maximum Release−Spontaneous Release)×100.\nCytotoxic T-lymphocyte responses (CTL) were measured using a standard in vitro assay and two different cells for stimulator and target cells. The OVA.EG7 cell line was used as both target cells and antigen specific stimulator cells; cells were irradiated when used as stimulator cells. Control target cells were wild-type EL-4 cells, that are not transfected with OVA. Splenic mononuclear cells were used as the effector cells. These cells were assayed after in vitro stimulation to induce precursor CTL maturation to functional CTL effector cells."}, "[4]": {"tested_on": "ovalbumin (OVA)", "experiment": "Serum antibody responses to OVA after s.c., oral or nasal delivery", "type": "in vivo, C57BL/6 mice", "procedure": "The utility of the CRL1005 copolymer for use as an oral vaccine adjuvant/delivery system using OVA as the vaccine antigen was evaluated. To ensure immunogenicity of the formulation, C57BLJ6 mice in the positive control group were immunized twice, at ten day intervals, subcutaneously (s.c.) with 25 μg/100 μl dose of OVA+/−1.25% CRL1005 in PBS. Mice immunized orally received 125 μg/500 μl dose of +/−1.25% CRL1005 in bicarbonate buffer, again at 10 day intervals. Mice were also immunized using nasal delivery since dilution or degradation in the stomach was considered to be a possibility. Mice received the same amounts of OVA and CRL1005 used for the s c injections but in a volume of 20 μl. Blood was collected as the source of serum antibodies for testing 14 days after the second immunization."}}}
{"molecule": "B1", "values": [{"measurement": "cytokine responses", "setting": "[1]", "value": "did not induce measurable cytokine responses"}, {"measurement": "OVA-specific antibody responses", "setting": "[2]", "value": "not induced"}, {"measurement": "OVA-specific CTL activity", "setting": "[3]", "value": "not detected"}, {"measurement": "serum antibody response to OVA", "setting": "[4]; nasal, 25 μg OVA +/- 1.25% CRL1005 in 20 μl, twice", "value": "failed to induce antibody responses"}, {"measurement": "serum antibody response to OVA", "setting": "[4]; oral, 125 μg OVA +/- 1.25% CRL1005 in bicarbonate buffer, twice", "value": "failed to induce antibody responses"}, {"measurement": "serum antibody response to OVA", "setting": "[4]; s.c., 25 μg OVA +/- 1.25% CRL1005, twice, 14 days after second immunization", "value": "effective"}]}
